Source: US7838231 (REGENTS OF THE UNIVERSITY OF MICHIGAN, dated 2010)

Legend:
Assay in all cases: direct yeast two-hybrid assay
[1] = biological target: T1, inversin (NPHP2), human full length, yeast two-hybrid prey (human, UniProt Q9Y283 1-1065)
T1 construct: also called INVS
T1 sequence: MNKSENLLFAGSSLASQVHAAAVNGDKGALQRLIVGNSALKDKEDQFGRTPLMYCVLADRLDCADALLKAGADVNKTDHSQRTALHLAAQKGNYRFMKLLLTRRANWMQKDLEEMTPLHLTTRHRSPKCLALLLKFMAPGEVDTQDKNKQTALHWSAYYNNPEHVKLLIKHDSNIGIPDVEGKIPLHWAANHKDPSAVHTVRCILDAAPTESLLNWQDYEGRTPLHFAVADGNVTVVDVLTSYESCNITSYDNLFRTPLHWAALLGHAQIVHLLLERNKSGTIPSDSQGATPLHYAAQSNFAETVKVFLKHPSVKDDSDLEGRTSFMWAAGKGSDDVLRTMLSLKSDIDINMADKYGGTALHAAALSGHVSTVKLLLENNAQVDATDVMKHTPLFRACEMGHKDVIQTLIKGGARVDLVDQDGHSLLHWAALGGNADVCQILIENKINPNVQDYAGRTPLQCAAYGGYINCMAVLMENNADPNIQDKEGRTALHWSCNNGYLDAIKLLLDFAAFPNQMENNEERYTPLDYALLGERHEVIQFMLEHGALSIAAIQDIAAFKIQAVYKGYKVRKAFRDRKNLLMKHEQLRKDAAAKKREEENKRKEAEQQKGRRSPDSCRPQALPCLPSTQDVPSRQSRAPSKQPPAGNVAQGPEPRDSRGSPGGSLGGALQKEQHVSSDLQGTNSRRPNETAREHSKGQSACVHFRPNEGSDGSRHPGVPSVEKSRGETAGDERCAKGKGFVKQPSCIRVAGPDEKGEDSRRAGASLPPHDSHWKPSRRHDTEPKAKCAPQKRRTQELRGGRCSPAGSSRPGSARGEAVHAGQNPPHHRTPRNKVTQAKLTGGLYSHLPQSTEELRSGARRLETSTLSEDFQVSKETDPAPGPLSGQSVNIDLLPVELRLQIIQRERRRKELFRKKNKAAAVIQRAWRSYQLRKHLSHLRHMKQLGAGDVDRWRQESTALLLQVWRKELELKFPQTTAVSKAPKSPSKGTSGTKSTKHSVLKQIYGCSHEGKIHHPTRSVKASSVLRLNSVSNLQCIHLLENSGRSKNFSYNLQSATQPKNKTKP

[2] = biological target: T2, KIF3A, yeast two-hybrid construct (UniProt Q9Y496 1-699)
T2 construct: The construct is not described in the methods; not shown: GAL4 domain of the two-hybrid vector; not described for this construct

[3] = biological target: T3, RPGR (non-ORF15 containing isoform), human full length, yeast two-hybrid prey (human, UniProt Q92834-2 1-815)
T3 construct: also called non-ORF15 containing RPGR isoform
T3 sequence (looked up): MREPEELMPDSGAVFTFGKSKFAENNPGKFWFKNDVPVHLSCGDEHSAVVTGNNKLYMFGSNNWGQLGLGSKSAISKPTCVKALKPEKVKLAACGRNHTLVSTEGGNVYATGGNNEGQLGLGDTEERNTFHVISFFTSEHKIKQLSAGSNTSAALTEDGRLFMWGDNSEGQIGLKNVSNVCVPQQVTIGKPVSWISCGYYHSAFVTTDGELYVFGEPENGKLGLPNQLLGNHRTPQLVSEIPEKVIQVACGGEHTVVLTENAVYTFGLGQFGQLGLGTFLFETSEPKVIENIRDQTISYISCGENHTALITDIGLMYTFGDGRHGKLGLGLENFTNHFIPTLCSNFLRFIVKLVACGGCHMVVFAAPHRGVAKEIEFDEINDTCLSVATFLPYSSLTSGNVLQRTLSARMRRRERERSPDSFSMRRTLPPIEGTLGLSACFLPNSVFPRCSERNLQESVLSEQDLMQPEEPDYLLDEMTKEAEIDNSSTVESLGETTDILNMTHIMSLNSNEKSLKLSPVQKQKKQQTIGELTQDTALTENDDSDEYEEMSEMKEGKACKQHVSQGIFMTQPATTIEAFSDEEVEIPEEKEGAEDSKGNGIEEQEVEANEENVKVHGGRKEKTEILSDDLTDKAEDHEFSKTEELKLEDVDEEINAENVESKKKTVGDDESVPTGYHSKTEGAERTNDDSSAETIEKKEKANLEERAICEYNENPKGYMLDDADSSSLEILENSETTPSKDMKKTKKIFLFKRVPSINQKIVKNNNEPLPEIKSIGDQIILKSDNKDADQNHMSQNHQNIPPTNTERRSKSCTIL

Measured: binding result

T2 sequence (Q9Y496 whole entry, the tested form may be a part): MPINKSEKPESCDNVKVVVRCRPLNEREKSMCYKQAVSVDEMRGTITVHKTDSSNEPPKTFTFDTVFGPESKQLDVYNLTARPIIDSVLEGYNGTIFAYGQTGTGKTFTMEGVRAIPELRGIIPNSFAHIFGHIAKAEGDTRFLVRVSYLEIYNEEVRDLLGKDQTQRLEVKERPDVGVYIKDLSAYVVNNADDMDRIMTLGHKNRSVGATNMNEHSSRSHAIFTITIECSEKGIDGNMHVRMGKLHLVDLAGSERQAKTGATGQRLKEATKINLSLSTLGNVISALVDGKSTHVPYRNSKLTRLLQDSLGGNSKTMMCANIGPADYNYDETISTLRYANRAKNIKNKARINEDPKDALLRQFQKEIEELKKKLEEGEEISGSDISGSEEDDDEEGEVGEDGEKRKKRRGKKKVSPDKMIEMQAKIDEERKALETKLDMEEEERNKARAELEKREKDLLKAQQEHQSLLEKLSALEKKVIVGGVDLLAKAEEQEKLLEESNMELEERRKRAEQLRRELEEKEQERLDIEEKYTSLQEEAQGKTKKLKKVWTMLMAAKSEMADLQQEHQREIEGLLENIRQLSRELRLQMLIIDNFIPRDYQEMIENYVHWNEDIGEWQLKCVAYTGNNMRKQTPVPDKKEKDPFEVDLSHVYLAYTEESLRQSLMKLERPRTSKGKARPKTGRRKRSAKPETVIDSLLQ

B1: full-length human nephrocystin-5 (NPHP5), yeast two-hybrid fusion (other, not shown: small tags and cut ends)
chain: MKPTGTDPRILSIAAEVAKSPEQNVPVILLKLKEIINITPLGSSELKKIKQDIYCYDLIQYCLLVLSQDYSRIQGGWTTISQLTQILSHCCVGLEPGEDAEEFYNELLPSAAENFLVLGRQLQTCFINAAKAEEKDELLHFFQIVTDSLFWLLGGHVELIQNVLQSDHFLHLLQADNVQIGSAVMMMLQNILQINSGDLLRIGRKALYSILDEVIFKLFSTPSPVIRSTATKLLLLMAESHQEILILLRQSTCYKGLRRLLSKQETGTEFSQELRQLVGLLSPMVYQEVEEQKLHQAACLIQAYWKGFQTRKRLKKLPSAVIALQRSFRSKRSKMLLEINRQKEEEDLKLQLQLQRQRAMRLSRELQLSMLEIVHPGQVEKHYREMEEKSALNIQKHWRGYRERKNFHQQRQSLIEYKAAVTLQRAALKFLAKCRKKKKLFAPWRGLQELTDARRVELKKRVDDYVRRHLGSPMSDVVSRELHAQAQERLQHYFMGRALEERAQQHREALIAQISTNVEQLMKAPSLKEAEGKEPELFLSRSRPVAAKAKQAHLTTLKHIQAPWWKKLGEESGDEIDVPKDELSIELENLFIGGTKPP
notes: Full-length NPHP5 cDNA (598 amino acid residues) fused to a GAL4 domain; also called KIAA0036
no binding: [1] | [2] | [3]
